From article PMC7600425, “Modulation of Guanylate Cyclase Activating Protein 1 (GCAP1) Dimeric Assembly by Ca^2+ or Mg^2+: Hints to Understand Protein Activity” (Biomolecules, 2020)

B1: human guanylyl cyclase-activating protein 1 (hGCAP1), N-terminally myristoylated, E6S (natural protein, UniProt P43080 1-201, looked up)
chain: MGNVMSGKSVEELSSTECHQWYKKFMTECPSGQLTLYEFRQFFGLKNLSPSASQYVEQMFETFDFNKDGYIDFMEYVAALSLVLKGKVEQKLRWYFKLYDVDGNGCIDRDELLTIIQAIRAINPCSDTTMTAEEFTDTVFSKIDVNGDGELSLEEFIEGVQKDQMLLDTLTRSLDLTRIVRRLQNGEQDEEGADEAAEAAG
modifications: N-terminal myristoylation (myristoylated Gly at the N-term); in the MST experiments the labelled copy carries the dye NT-647-NHS on primary amines (lysine residues), about 1:1
notes: printed as 201 amino acids, 22.9 kDa; E6S needed for myristoylation in E. coli; In MST a dye-labelled copy was titrated with unlabelled protein; also called human GCAP1; recombinant human (h) GCAP1; source: E. coli BL21-CodonPlus RP, co-expressed with yeast N-myristoyltransferase, purified (ion exchange, SEC)

Legend:
RetGC (Homo sapiens) = RetGC (Homo sapiens) (UniProt Q02846); details: cited from earlier work
[1] = molecular target: the molecule itself; test: SEC; analytical SEC, Superdex 75 Increase 10/300 GL, six dilutions (87-2 µM injected); 20 mM Tris-HCl pH 8.0, 100 mM NaCl, 1 mM DTT, 5 mM CaCl2; Ca2+-bound; Kd from a 3-parameter fit of elution volume against concentration; dimer to monomers
[2] = molecular target: the molecule itself; test: MST; NT-647-NHS-labelled hGCAP1 with dilutions of unlabelled hGCAP1; 20 mM Tris-HCl, 150 mM KCl, 5 mM MgCl2, 2.5 mM EGTA, pH 7.5, 1 mM DTT, 0.05% Tween20; Mg2+-bound; dimer to monomers
[3] = molecular target: the molecule itself; test: SEC; analytical SEC, Superdex 75 Increase 10/300 GL, dilution series; 20 mM Tris-HCl pH 8.0, 100 mM NaCl, 1 mM DTT, 5 mM MgCl2, 2.5 mM EGTA; Mg2+-bound; Kd from a 3-parameter fit of elution volume against concentration; dimer to monomers
[4] = molecular target: the molecule itself; test: MST; NT-647-NHS-labelled hGCAP1 with 16 dilutions of unlabelled hGCAP1 (46.6 µM to 11.4 nM); 20 mM Tris-HCl, 100 mM NaCl, pH 7.5, 1 mM DTT, 5 mM CaCl2, 0.05% Tween20; 24 °C; Ca2+-bound; dimer to monomers

Chain of RetGC (Homo sapiens) (Q02846 52-1103): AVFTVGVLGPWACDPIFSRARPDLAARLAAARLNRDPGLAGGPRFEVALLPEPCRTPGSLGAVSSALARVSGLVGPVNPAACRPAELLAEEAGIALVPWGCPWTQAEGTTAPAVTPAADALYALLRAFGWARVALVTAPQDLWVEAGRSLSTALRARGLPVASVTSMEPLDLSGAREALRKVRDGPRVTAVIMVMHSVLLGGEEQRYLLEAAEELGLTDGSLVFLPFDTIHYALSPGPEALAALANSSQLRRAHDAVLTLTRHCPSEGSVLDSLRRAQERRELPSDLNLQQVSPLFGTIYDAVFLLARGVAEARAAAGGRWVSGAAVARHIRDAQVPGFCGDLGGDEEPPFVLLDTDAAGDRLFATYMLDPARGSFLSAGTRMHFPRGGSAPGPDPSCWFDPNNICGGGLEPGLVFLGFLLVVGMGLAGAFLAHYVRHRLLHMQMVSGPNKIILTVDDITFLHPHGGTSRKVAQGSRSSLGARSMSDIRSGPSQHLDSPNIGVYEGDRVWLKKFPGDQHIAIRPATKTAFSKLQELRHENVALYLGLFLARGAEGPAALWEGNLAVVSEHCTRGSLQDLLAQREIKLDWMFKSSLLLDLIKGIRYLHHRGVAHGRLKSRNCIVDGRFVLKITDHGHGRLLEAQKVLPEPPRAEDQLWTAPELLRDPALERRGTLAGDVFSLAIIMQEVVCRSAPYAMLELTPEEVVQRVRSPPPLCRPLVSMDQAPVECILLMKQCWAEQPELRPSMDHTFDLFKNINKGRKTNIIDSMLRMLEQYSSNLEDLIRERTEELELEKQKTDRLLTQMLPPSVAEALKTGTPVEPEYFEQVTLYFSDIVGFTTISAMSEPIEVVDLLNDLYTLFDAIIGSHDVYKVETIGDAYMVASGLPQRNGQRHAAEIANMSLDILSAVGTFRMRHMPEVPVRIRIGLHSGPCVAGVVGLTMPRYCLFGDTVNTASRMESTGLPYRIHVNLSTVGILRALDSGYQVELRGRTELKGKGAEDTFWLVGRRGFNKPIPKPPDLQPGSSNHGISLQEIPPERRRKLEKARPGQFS

| Molecule | Kd (RetGC (Homo sapiens)) [µM] | Kd [1] [µM] | stoichiometry N [1] | Kd [2] [µM] | Kd [3] [µM] | Kd [4] [µM] |
| --- | --- | --- | --- | --- | --- | --- |
| GCAP1 (from UniProt P43080) | 3.2 |  |  |  |  |  |
| B1 |  | 8.8 ± 0.7 | 2 | 77.2 ± 8.9 | 45 ± 15 | 9.4 ± 1.3 |
